{
  "source": "patent US20150337012A1",
  "about": "(HOYA, published 2015)",
  "note": "Where no end group is shown, it is not given here. The star is where a group is joined. FITC = O=C1OC2(c3ccc(O)cc3Oc3cc(O)ccc32)c2ccc(NC(=S)*)cc21; Ahx = NCCCCCC(=O)O",
  "data": [
    {"molecular_target": "T1, recombinant human EGFR/Fc chimera (rhEGFR, R&D Systems) (human, UniProt P00533 25-645)", "T1 construct": "Bought reagent; Coated on the plate at 1 ug/well; also called genetically modified EGFR protein; not shown: human IgG1 Fc moiety of the chimera", "assay": "substituted phage binding to plate-coated rhEGFR, titer ratio", "method": "A rhEGFR that is a target protein was added to a 96-well microplate to be 1 μg/well, and stood still at 4° C. overnight to be thus formed into a solid phase. A protein solution was removed, 300 μl of a blocking buffer (5 mg/mL BSA/TBS) was added and the mixture was incubated at 37° C. for 1 hour to thus block the wells. After removal of the blocking buffer, the wells were washed with 200 μl of 0.5% TBST (0.5% Tween20/TBS) being the washing solution three times and thereto was finally added 100 μl of 0.5% TEST. An amplification phage solution was added to the above described wells to have 1×10¹⁰ PFU and mixed by pipetting. In the reaction, the mixture was gently shaken at room temperature for 1 hour. The reaction solution was removed and the wells were washed with 200 μl of 0.5% TBST ten times, 100 μl of 0.2 M glycine-HCl (pH 2.2) was then added to the wells and stirred by pipetting, thereafter gently shaking at room temperature for 10 minutes. The eluate was collected to a microtube from the wells and added with 15 μl of 1 M Tris-HCl (pH 9.1) to be neutralized and a target binding phage solution was thus obtained. The binding ability of the collected phage was examined by a measurement of a titer.", "values": [
      {"binder": "WHMSDLWANAWH (peptide, not shown: large carriers, Phage with two substituted amino acids; also called L3M/Q8A)", "note": "[I-1010 phage in which the 3rd L was substituted with M and the 8th Q was substituted with A]", "binding result": "binds"},
      {"binder": "FHLSDLWANAWH (peptide, not shown: large carriers, Phage with two substituted amino acids; also called W1F/Q8A)", "note": "[I-1010 phage in which the 1st W was substituted with F and the 8th Q was substituted with A]", "binding result": "binds"},
      {"binder": "WHLSDLYQNAWH (peptide, not shown: large carriers, also called W7Y)", "note": "[I-1010 amino acid substituted phage, 7th W substituted with Y]", "binding result": "binds"},
      {"binder": "WHVSDLWQNAWH (peptide, not shown: large carriers, also called L3V)", "note": "[I-1010 amino acid substituted phage, 3rd L substituted with V]", "binding result": "binds"},
      {"binder": "FHLSDLWQNAWH (peptide, not shown: large carriers, also called W1F)", "note": "[I-1010 amino acid substituted phage, 1st W substituted with F]", "binding result": "binds"},
      {"binder": "WHMSDLWQNAWH (peptide, not shown: large carriers, also called L3M)", "note": "[I-1010 amino acid substituted phage, 3rd L substituted with M]", "binding result": "binds"},
      {"binder": "WHLSDLFQNAWH (peptide, not shown: large carriers, also called W7F)", "note": "[I-1010 amino acid substituted phage, 7th W substituted with F]", "binding result": "binds"},
      {"binder": "WHISDLWQNAWH (peptide, not shown: large carriers, also called L3I)", "note": "[I-1010 amino acid substituted phage, 3rd L substituted with I]", "binding result": "binds"}
    ]},
    {"molecular_target": "T2, EGFR expressed by A-431 cells (human, UniProt P00533 25-1210)", "T2 construct": "whole, on cells; also called EGFR expressed by cells", "assay": "phage binding to A-431 cells at 4 °C, titer ratio corrected for the number of collected cells", "units": {"fold titer ratio over that of the M13KE phage": "times"}, "description": "A-431 cells were inoculated in a 6-well culture plate at 40×10⁴ cells/well and cultured at 37° C. in the condition of 5% CO₂ overnight. The plate was incubated at 4° C. for 30 minutes and a medium in each well was removed, and treated by washing with 1 mL of 1% BSA/PBS twice. […] After the reaction, the reaction solution was removed and washed with 1 mL of 1% BSA/PBS ten times to remove non-binding phages. Thereto was added 100 μl of a 0.05% trypsin/0.53 mM EDTA solution and the reaction solution was incubated at 37° C. for about 10 minutes and added with 900 μl of a growth medium to prepare a collected phage solution. A titer of each collected phage solution was measured.", "values": [
      {"binder": "WHLSDLWQNAWH (peptide, not shown: large carriers, tested as phage particles, 1x10^10 PFU per well)", "note": "[I-1010 phage (peptide displayed phage from the D12 library)]", "fold titer ratio over that of the M13KE phage": 45}
    ]},
    {"molecular_target": "T2, EGFR expressed by A-431 cells", "assay": "confocal fluorescence microscopy of A-431 cells with 100 µM FITC-labeled peptide", "description": "A-431 cells were inoculated in a glass bottom dish to be 20×10⁴ cells/dish and MCF7 cells were inoculated in a glass bottom dish to be 75×10⁴ cells/dish, and cultured at 37° C. in the condition of CO₂ for 24 hours. After culturing each kind of the cells for a specified time, EGF was added to have a concentration of 100 ng/mL and the mixture was cultured for 6 days. Thereafter, the culture solution in the dish was removed and washed with 1000 μL of a growth medium at 37° C. ten times. […] A staining fluid was removed and washed with 1 mL of a growth medium at 37° C. three times and thereto was finally added 1 mL of the medium. For observation, fluorescent observation was carried out by irradiating an exciting light laser with a wavelength of 488 nm using a confocal microscope (Leica SP2).", "values": [
      {"binder": "{FITC-Ahx}-WHLSDLWQNAWH", "note": "[Pep055-F (FITC-labeled Pep055)]", "binding result": "binds"}
    ]},
    {"molecular_target": "T1, recombinant human EGFR/Fc chimera …", "assay": "phage binding to plate-coated protein, titer ratio", "method": "After removal of the blocking buffer, the wells were washed with 200 μl of 0.5% TBST being the washing solution three times and thereto was finally added 100 μl of 0.5% TBST. […] In the reaction, the mixture was gently shaken at room temperature for 1 hour. The reaction solution was removed and the wells were washed with 200 μl of 0.5% TBST ten times, 100 μl of 0.2 M glycine-HCl (pH 2.2) was added to the wells and stirred by pipetting, thereafter gently shaking at room temperature for 10 minutes. The eluate was collected to a microtube from the wells and added with 15 μl of 1 M Tris-HCl (pH 9.1) to be neutralized and a target binding phage solution was thus obtained. The binding ability of the collected phage was examined by a measurement of a titer.\nA rhEGFR that is a target protein, a recombinant human ErbB2(rhErbB2, PROSPEC) as a HER2 protein belonging to the ErbB family same as an EGFR, are combinant human IGF-1R, CF(rhIGF-1R, R&D Systems) as an IGF-1R protein that is one of extracellular proteins were added to a 96-well microplate to be 1 μg/well, and stood still at 4° C. overnight to be thus formed into a solid phase. A protein solution was removed, 300 μl of a blocking buffer was added and the mixture was incubated at 37° C. for 1 hour to thus block the wells. After removal of the blocking buffer, the wells were washed three times with 200 μl of 0.5% TBST washing solution, and finally 100 μl of 0.5% TBST was added thereto. […] In the reaction, the mixture was gently shaken at room temperature for 1 hour. The reaction solution was removed, the wells were washed with 200 μl of 0.5% TEST ten times, and 100 μl of 0.2 M glycine-HCl (pH 2.2) was then added to the wells and stirred by pipetting, thereafter gently shaking at room temperature for 10 minutes. The eluate was collected to a microtube from the wells and added with 15 μl of 1 M Tris-HCl (pH 9.1) to be neutralized and a target binding phage solution was thus obtained.", "units": {"fold binding to rhEGFR over binding to BSA": "times", "fold binding to rhEGFR over binding to rhErbB2": "times", "fold binding to rhEGFR over binding to rhIGF-1R": "times", "fold binding to rhEGFR over binding to rhIgG1": "times"}, "values": [
      {"binder": "LHQSEWMYVDIH (peptide, not shown: large carriers, tested as phage particles)", "note": "[I-1015 phage (peptide displayed phage from the D12 library)]", "fold binding to rhEGFR over binding to BSA": 14000, "fold binding to rhEGFR over binding to rhErbB2": 4740, "fold binding to rhEGFR over binding to rhIGF-1R": 7710, "fold binding to rhEGFR over binding to rhIgG1": 19000},
      {"binder": "WHLSDLWQNAWH (peptide, not shown: large carriers, tested as phage particles, 1x10^10 PFU per well)", "note": "[I-1010 phage (peptide displayed phage from the D12 library)]", "fold binding to rhEGFR over binding to BSA": 3810, "fold binding to rhEGFR over binding to rhErbB2": 1760, "fold binding to rhEGFR over binding to rhIGF-1R": 2830, "fold binding to rhEGFR over binding to rhIgG1": 1660},
      {"binder": "FHDWLPEVSPPD (peptide, not shown: large carriers, tested as phage particles)", "note": "[I-1012 phage (peptide displayed phage from the D12 library)]", "fold binding to rhEGFR over binding to BSA": 3100, "fold binding to rhEGFR over binding to rhErbB2": 1580, "fold binding to rhEGFR over binding to rhIGF-1R": 4340, "fold binding to rhEGFR over binding to rhIgG1": 3420}
    ]}
  ]
}
